Substitutions are numbered along the chain they refer to. Values belong to the molecule of their own block, whether it stands above or below them.
Assays:
[1] = system: human FSHR; assay: ^125I-FSH binding to wild type and mutant FSH receptors on intact stably transfected HEK 293 cells; settings: for FSH binding / Kd compared with the wild type receptor, in words: intact HEK 293 cells
Method: (§1) Mutant FSHR cDNAs were prepared in the pSELECT vector using the Altered Sites Mutagenesis system (Promega), sequenced on a Beckman CEQ 2000XL capillary sequencer, subcloned into pcDNA3 (Invitrogen), and sequenced again to verify mutation sequences. […] Wild type and mutant receptor constructs were transfected into HEK 293 cells by the calcium phosphate method as previously described. Stable cell lines were established in minimum essential medium containing 10% horse serum and 500 μg/ml of G418. These cells were used for hormone binding, cAMP production. All assays were carried out in duplicate and repeated 4-5 times, and means±S.D. were calculated.
(§2) The Kd values were determined by Scatchard plots. For intracellular cAMP assay, cells were washed twice with Dulbecco's modified Eagle's medium and incubated in the medium containing 0.1 μg/ml isobutylmethylxanthine for 15 mm. Increasing concentrations of FSH were then added and incubation was continued for 45 mm at 37° C. After removing the medium, the cells were rinsed once with fresh medium without isobutylmethylxanthine, lysed in 70% ethanol, freeze-thawed in liquid nitrogen, and scraped.
Each mutant human FSHR cDNA was prepared in a pSELECT vector using the non-PCR based Altered Sites Mutagenesis System (Promega), sequenced on a Beckman CEQ 2000XL capillary sequencer and subcloned into pcDNA3 (Invitrogen) as described. After subcloning pcDNA3 the mutant cDNAs were sequenced again. Plasmids were transfected into human embryonic kidney (HEK) 293 cells by the calcium phosphate method. Stable cell lines were established in minimum essential medium containing 10% horse serum and 500 μg/ml of G-418, and then used for hormone binding and cAMP assay. All assays were carried out in duplicate and repeated 4-6 times. Means and standard variations were calculated.
(§3) Human FSH (the National Hormone and Pituitary Program) was radioiodinated as previously described for radioiodination of hCG. […] The Kd values were determined by Scatchard plots. Truncated exodomain was solubilized in Nonidet P-40 and assayed for hormone binding as described previously. For intracellular cAMP assay, cells were washed twice with Dulbecco's modified Eagle's media and incubated in the media containing isobutylmethylxanthine (0.1 mg/ml) for 15 minutes. Increasing concentrations of FSH were then added and the incubation was continued for 45 minutes at 37° C. After removing the media, the cells were rinsed once with fresh media without isobutylmethylxanthine, lysed in 70% ethanol, freeze-thawed in liquid nitrogen, and scraped. […] Exoloop 3 of FSHR was modeled based on the crystal structure of rhodopsin as a template.

[2] = system: human FSHR; assay: FSH dependent intracellular cAMP assay, wild type and mutant FSHR in HEK 293 cells; format: cell-based; settings: for FSH dependent cAMP induction / EC50 compared with the wild type receptor, in words: HEK 293 cells
Method: as §1, §2, §3

[3] = system: FSHR; assay: ^125I-FSH binding to solubilized FSHR (NP-40); set-up: species or system human; settings: solubilized mutant receptors
Method: Transfected cells were washed twice with ice cold 150 mM NaCl, 20 mM HEPES, pH 7.4 (buffer A). Cells were scraped on ice, collected in buffer A containing protease inhibitors (1 mM phenylmethylsulfonyl fluoride, 5 mM N-ethylmaleimide, and 10 mM EDTA), and pelleted by centrifugation at 1300×g for 10 minutes. Cells were resuspended in 0.6 ml of buffer A containing 1% NP-40, 20% glycerol, and the above protease inhibitors (buffer B), incubated on ice for 15 mm, and diluted with 5.4 ml of buffer A containing 20% glycerol plus the protease inhibitors (buffer C). The mixture was centrifuged at 100,000×g for 60 minutes. […] After incubation for 12 hours at 4° C., the solution was thoroughly mixed with 250 μl of buffer A containing bovine γ-globulin (5 μg/ml) and 750 μl of buffer A containing 20% polyethylene glycol 8000. After incubation for 10 minutes at 4° C., samples were pelleted at 1300×g for 30 mm and supernatants removed. Pellets were resuspended in 1.5 ml of buffer A containing 20% polyethylene glycol 8000, centrifuged, and counted for radioactivity.

B2: L^583 F: human FSHR mutant, Phe for L583 (protein)
chain: CHHRICHCSNRVFLCQESKVTEIPSDLPRNAIELRFVLTKLRVIQKGAFSGFGDLEKIEISQNDVLEVIEADVFSNLPKLHEIRIEKANNLLYINPEAFQNLPNLQYLLISNTGIKHLPDVHKIHSLQKVLLDIQDNINIHTIERNSFVGLSFESVILWLNKNGIQEIHNCAFNGTQLDELNLSDNNNLEELPNDVFHGASGPVILDISRTRIHSLPSYGLENLKKLRARSTYNLKKLPTLEKLVALMEASLTYPSHCCAFANWRRQISELHPICNKSILRQEVDYMTQARGQRSSLAEDNESSYSRGFDMTYTEFDYDLCNEVVDVTCSPKPDAFNPCEDIMGYNILRVLIWFISILAITGNIIVLVILTTSQYKLTVPRFLMCNLAFADLCIGIYLLLIASVDIHTKSQYHNYAIDWQTGAGCDAAGFFTVFASELSVYTLTAITLERWHTITHAMQLDCKVQLRHAASVMVMGWIFAFAAALFPIFGISSYMKVSICLPMDIDSPLSQLYVMSLLVLNVLAFVVICGCYIHIYLTVRNPNIVSSSSDTRIAKRMAMLIFTDFLCMAPISFFAISASLKVPFITVSKAKILLVLFHPINSCANPFLYAIFTKNFRRDFFILLSKCGCYEMQAQIYRTETSSTVHNTHPRNGHCSSAPRVTSGSTYILVPLSHLAQN
FSH dependent cAMP induction / EC50 compared with the wild type receptor, in words [2]: induced significant amounts of cAMP with reasonable EC50 values

B3: L^14A: human FSHR with Ala substituted for L14 (protein)
chain: B2 chain with L14A, F584L
FSH binding / Kd compared with the wild type receptor, in words [1]: improved hormone binding
FSH binding / Kd compared with the wild type receptor, in words ([1]; listed as FSHR^L14A): lower than the wild type value
FSH dependent cAMP induction / EC50 compared with the wild type receptor, in words [2]: lower than the wild type value

B6: F^13A: human FSHR with Ala substituted for F13 (protein)
chain: B2 chain with F13A, F584L
FSH dependent cAMP induction / EC50 compared with the wild type receptor, in words [2]: lower than the wild type value

B9: D^26A: human FSHR with Ala substituted for D26 (protein)
chain: B2 chain with D26A, F584L
FSH binding / Kd compared with the wild type receptor, in words [1]: completely abrogated hormone binding
FSH binding to receptors solubilized in NP-40 [3]: did not bind

B10: L^583 A: human FSHR exoloop 3 mutant, Ala for L583 (protein)
chain: B2 chain with F584A
FSH dependent cAMP induction / EC50 compared with the wild type receptor, in words [2]: did not produce cAMP

B11: I^23A: human FSHR with Ala substituted for I23 (protein)
chain: B2 chain with I23A, F584L
EC50 value of cAMP induction, fold higher than wild type ([2]; FSH dependent cAMP): 23 fold
maximal cAMP level, fold lower than wild type ([2]; FSH dependent cAMP): 2.6 fold

B12: L^583 Q: human FSHR mutant, Gln for L583 (protein)
chain: B2 chain with F584Q
FSH dependent cAMP induction / EC50 compared with the wild type receptor, in words [2]: induced a marginal level of cAMP

B13: R^11A: human FSHR with Ala substituted for R11 (protein)
chain: B2 chain with R11A, F584L
FSH binding / Kd compared with the wild type receptor, in words [1]: improved hormone binding
FSH binding / Kd compared with the wild type receptor, in words ([1]; listed as FSHR^R11A): lower than the wild type value

B14: del: human FSHR deletion mutant, L583 deleted (protein, UniProt P23945 18-695, looked up, variant L583*)
Follicle-stimulating hormone …: CHHRICHCSNRVFLCQESKVTEIPSDLPRNAIELRFVLTKLRVIQKGAFSGFGDLEKIEISQNDVLEVIEADVFSNLPKLHEIRIEKANNLLYINPEAFQNLPNLQYLLISNTGIKHLPDVHKIHSLQKVLLDIQDNINIHTIERNSFVGLSFESVILWLNKNGIQEIHNCAFNGTQLDELNLSDNNNLEELPNDVFHGASGPVILDISRTRIHSLPSYGLENLKKLRARSTYNLKKLPTLEKLVALMEASLTYPSHCCAFANWRRQISELHPICNKSILRQEVDYMTQARGQRSSLAEDNESSYSRGFDMTYTEFDYDLCNEVVDVTCSPKPDAFNPCEDIMGYNILRVLIWFISILAITGNIIVLVILTTSQYKLTVPRFLMCNLAFADLCIGIYLLLIASVDIHTKSQYHNYAIDWQTGAGCDAAGFFTVFASELSVYTLTAITLERWHTITHAMQLDCKVQLRHAASVMVMGWIFAFAAALFPIFGISSYMKVSICLPMDIDSPLSQLYVMSLLVLNVLAFVVICGCYIHIYLTVRNPNIVSSSSDTRIAKRMAMLIFTDFCMAPISFFAISASLKVPLITVSKAKILLVLFHPINSCANPFLYAIFTKNFRRDFFILLSKCGCYEMQAQIYRTETSSTVHNTHPRNGHCSSAPRVTSGSTYILVPLSHLAQN
improvement of hormone binding affinity (decrease of Kd) compared with wild type ([1]; FSH binding, mutant versus wild type FSHR): more than 4 fold

Further lines, with some results ahead:

FSH dependent cAMP induction / EC50 compared with the wild type receptor, in words [2]: lower than the wild type value
B1: N^10A: human FSHR with Ala substituted for N10 (protein)
chain: B2 chain with N10A, F584L
FSH binding / Kd compared with the wild type receptor, in words [1]: improved hormone binding
FSH binding / Kd compared with the wild type receptor, in words ([1]; listed as FSHR^N10A): lower than the wild type value

reduction (improvement) of the EC50 value of cAMP induction compared with wild type ([2]; FSH dependent cAMP): 3 fold
FSH dependent cAMP induction / EC50 compared with the wild type receptor, in words [2]: considerably lower EC50 value
B4: S^18A: human FSHR with Ala substituted for S18 (protein)
chain: B2 chain with S18A, F584L
FSH binding / Kd compared with the wild type receptor, in words [1]: higher Kd value

FSH binding to receptors solubilized in NP-40 [3]: did not bind
B5: P^24A: human FSHR with Ala substituted for P24 (protein)
chain: B2 chain with P24A, F584L
FSH binding / Kd compared with the wild type receptor, in words [1]: completely abrogated hormone binding

FSH dependent cAMP induction / EC50 compared with the wild type receptor, in words [2]: lower than the wild type value
B7: V^12A: human FSHR with Ala substituted for V12 (protein)
chain: B2 chain with V12A, F584L

FSH dependent cAMP induction / EC50 compared with the wild type receptor, in words [2]: lower than the wild type value
B8: S^9A: human FSHR with Ala substituted for S9 (protein)
chain: B2 chain with S9A, F584L

— patent US20050142135A1, “Agents and methods for modulating interactions between gonadotropin hormones and receptors” (University of Kentucky Research Foundation, priority 2003, published 2005)
